According to paper PMC13216289:
Changes are numbered by the printed parent chain.

B1: Ab17 (antibody, V domains shown)
VH: QVQLRESGPSSLKPSQTLSLTCAVSGFSLSTYAVGWVRQAPGKALEWVGDITSSGDTFYNPALKSRFSITKDNSKNQVSLSVGSVTPEDTATFYCTRLTCGDDCSTAWHNFDAWGQGLLVTVSS
VL: SYELTQPTSVSVALGQTAKITCSGDLLDVQYTQWYQQKPGQGPVRVIYKDSERPSGISDRFSGSSSGKTATLIISGAQTEDEADYYCQSTDSSQYGIFGRGTTLTVL
B2: Ab49 (antibody, V domains shown)
VH: QVQLRESGPSLVKPSQTLSLTCTVSGFSLTNYAVGWVRQAPGKAIQSLSIISTTGDTYYNPALKSRLSITKDNSKSQVSLSVSSVAPEDTATYYCVKFCGNADSAGHGWGCDYGDNENWGQGLLVTVSS
VL: B1 VL with V29E, I73T, T90F, D91Y, Q94T, Y95D, G96P, I97V, R100S

Molecular target: FMDV C/PHI/3/1994 virus (Foot-and-mouth disease virus C/PHI/3/1994)

| Binder | VNT: minimum antibody concentration that neutralises C/PHI/3/1994 virus |
| --- | --- |
| B1 | 213 nM |
| B2 | 1150 nM |
